Measured values published in the supplement of paper PMC10126150.
± gives the standard deviation of the averaged measurements.

test system: ATP; assay: switch fluorescence ratio, 500 uM ATP over buffer (Cy3 cluster intensity, sum of 5 cycles each) (fold (ratio)); higher = stronger signal-on switching upon ATP binding; sequences stand for … in TCGTCGGCAGCGTCAGATGTGTATAAGAGACAGTTTTTTTTTTTTTTTTTTTTTTTTT…TC; settings: aptamer strand: ATP DNA aptamer (quencher-CACCTGGGGGAGTATTGCGGAGGAAGG + anchor), 100 nM annealed; ATP concentration: 500 uM
Outline: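 Per cluster, summed Cy3 intensity from the target cycles was divided by that from the buffer cycles to give the fluorescence ratio, then averaged per switch-domain sequence. Clusters outside 100-1000 RFU were excluded. The Cy3-labelled switching-strand clusters, on a modified Illumina MiSeq flow-cell, were annealed to 100 nM quencher-labelled ATP aptamer and imaged in selection buffer, then after 15 min with 500 uM ATP at 22 °C, for five cycles with NaOH stripping and re-annealing between them.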
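Note: ATP exposure 15 min at 22 °C before imaging.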

Row | Sequence | switch fluorescence ratio
1 | GGACACCGGG | 1.04 ± 0.015
2 | CCGTCAGGCG | 1.039 ± 0.0067
3 | GGGCGCCATC | 1.01 ± 0.016
4 | CGAATATACG | 1.04 ± 0.021
5 | CGATTTGGGC | 0.982 ± 0.021
6 | TTTTTCACTG | 1 ± 0.052
7 | GTTATAGTGG | 0.981 ± 0.01
8 | TCAAAAAGTG | 0.989 ± 0.034
9 | GAATTATTAA | 0.9922 ± 0.0026
10 | GCATGAGGAT | 1.01 ± 0.06
11 | AGGGTCGGTG | 0.98 ± 0.027
12 | GGGATGGCTG | 1.01 ± 0.055
13 | CATTTGGTCC | 1.008 ± 0.0012
14 | TAATGTATTT | 1.01 ± 0.02
15 | AGTTTGGCGT | 1.01 ± 0.041
16 | TATAGGTGTT | 1.05 ± 0.028
17 | GCGATAAAGC | 1.03 ± 0.041
18 | CTACAAGTTA | 1.048 ± 0.0027
19 | ATGCGGGCCA | 1.012 ± 0.0061
20 | CCTGTGTAGC | 1.092 ± 0.0031
21 | CCGGAGATTT | 1.57 ± 0.028
22 | TACGGGCTTA | 1.007 ± 0.0044

Row | Sequence | switch fluorescence ratio
23 | TACATGGGTT | 1.01 ± 0.0092
24 | TTTTACTT | 0.998 ± 0.042
25 | ACTAGGGCGT | 1 ± 0.033
26 | TAATCCTCGT | 1.005 ± 0.0058
27 | AAGATTTGTT | 0.978 ± 0.021
28 | TATTAGACGA | 0.963 ± 0.015
29 | GCTCGCCGAT | 1.01 ± 0.016
30 | GACTTGGGTG | 1.02 ± 0.038
31 | TGGAGTGTTC | 1.06 ± 0.011
32 | ACATTAGTTT | 1.013 ± 0.0056
33 | TTCCATCCAT | 1.0067 ± 0.00069
34 | TGTTGCTCCA | 1.05 ± 0.082
35 | CAAATACGTT | 1.01 ± 0.029
36 | TTGGAAGAGT | 0.9941 ± 0.0083
37 | GAAATGGGGG | 0.991 ± 0.028
38 | TTTCGTGGCA | 1.02 ± 0.066
39 | CCTTGGGACG | 0.992 ± 0.062
40 | TTGTTGGGGC | 1.02 ± 0.035
41 | TTGGGGATTG | 0.989 ± 0.021
42 | TGCGGGGGGT | 1.025 ± 0.0086
43 | AATGTTGTGG | 0.985 ± 0.031
44 | ATGGCGTGGC | 0.986 ± 0.018

Row | Sequence | switch fluorescence ratio
45 | TAAGGTTGTA | 0.9705 ± 0.0047
46 | TTTCGGCTTT | 1.24 ± 0.3
47 | TGGGGGTTAT | 0.993 ± 0.042
48 | GGATTAATTT | 0.98006 ± 0.00058
49 | GGCATTTTTG | 1.03 ± 0.015
50 | CAAGTTTGGG | 0.982 ± 0.019
51 | ACTGGTGACT | 1.01 ± 0.037
52 | TCGGTTACAT | 0.983 ± 0.016
53 | TACCACGGGG | 1.04 ± 0.019
54 | TAGATTTTAT | 1.01 ± 0.042
55 | TCGAGTTCAG | 0.99 ± 0.021
56 | TTAGATGGAG | 0.984 ± 0.024
57 | CCGTCTACTG | 1.04 ± 0.013
58 | AAAAATTCCG | 1.045 ± 0.0036
59 | GTTGACCGGT | 1 ± 0.016
60 | TTAGTCATGC | 1.09 ± 0.12
61 | GGGGGTACTG | 0.965 ± 0.028
62 | AGGGGGTACG | 1.01 ± 0.035
63 | TGACGCAAAG | 1.63 ± 0.065
64 | ATGTATCATA | 0.993 ± 0.025
65 | TTTGTGTTTT | 1.03 ± 0.044
66 | GTAATTTTTC | 1.01 ± 0.053

Row | Sequence | switch fluorescence ratio
67 | CATAGGTAGT | 0.981 ± 0.016
68 | TTTCACAGCT | 1.03 ± 0.041
69 | TGTGGTGGGC | 0.967 ± 0.0012
70 | GGCAACTTCT | 1.02 ± 0.011
71 | GCGCTTGCTC | 1.13 ± 0.013
72 | TTTAGACGGT | 1.02 ± 0.066
73 | TGGTGATGGC | 0.991 ± 0.012
74 | GCCGTTTGTG | 1.008 ± 0.0024
75 | AGGGAATATT | 1.01 ± 0.027
76 | GTTACATAGC | 1.08 ± 0.014
77 | CGCTTGGCTG | 0.981 ± 0.051
78 | CTGTATTTCT | 1.03 ± 0.021
79 | TAGGTATTGT | 1.003 ± 0.0091
80 | TGGGGTTAGT | 0.979 ± 0.014
81 | GAGCTAGGAG | 1 ± 0.024
82 | GATAGGCGGG | 0.9795 ± 0.0094
83 | ACGTTCCGAG | 2.54 ± 0.32
84 | TTCGGGGGTA | 0.97 ± 0.023
85 | CTTTTGCGCA | 1.007 ± 0.0079
